{"source": "patent US20090028790A1", "about": "(INSTITUT DE CARDIOLOGIE DE MONTREAL, published 2009)", "molecules": {"B1": {"name": "hAM2(16-47) (peptide, UniProt Q7Z4H4 116-147, looked up)", "peptide": "QVQNLSHRLWQLMGPAGRQDSAPVDPSSPHSY", "modifications": "ends and bridges not checked", "notes": "range 16-47; Numbering 16-47 is that of the mature AM2 peptide, not of the precursor entry"}, "B2": {"name": "human adrenomedullin hAM(1-52), cyclic (peptide)", "peptide": "YRQSMNNFQGLRSFGCRFGTCTVQKLAHQIYQFTDKDKDNVAPRSKISPQGY-NH2", "modifications": "disulfide 16-21", "notes": "also called hAM (cyclic); cyclic hAM"}, "B3": {"name": "linear human adrenomedullin hAM(1-52) (peptide)", "peptide": "YRQSMNNFQGLRSFGCRFGTCTVQKLAHQIYQFTDKDKDNVAPRSKISPQGY-NH2", "modifications": "cysteine pairing not given here", "notes": "also called hAM linear; linear hAM"}, "B4": {"name": "N-terminal acetylated human adrenomedullin (peptide)", "peptide": "Ac-YRQSMNNFQGLRSFGCRFGTCTVQKLAHQIYQFTDKDKDNVAPRSKISPQGY-NH2", "modifications": "ends and bridges not checked", "notes": "also called N-Ac hAM; N-terminal acetylated AM"}}, "key": {"[1]": {"molecular_target": "adrenomedullin receptors in the lungs of dogs (dog)", "sequence (chain, as listed by the source, chain 1 of 2)": "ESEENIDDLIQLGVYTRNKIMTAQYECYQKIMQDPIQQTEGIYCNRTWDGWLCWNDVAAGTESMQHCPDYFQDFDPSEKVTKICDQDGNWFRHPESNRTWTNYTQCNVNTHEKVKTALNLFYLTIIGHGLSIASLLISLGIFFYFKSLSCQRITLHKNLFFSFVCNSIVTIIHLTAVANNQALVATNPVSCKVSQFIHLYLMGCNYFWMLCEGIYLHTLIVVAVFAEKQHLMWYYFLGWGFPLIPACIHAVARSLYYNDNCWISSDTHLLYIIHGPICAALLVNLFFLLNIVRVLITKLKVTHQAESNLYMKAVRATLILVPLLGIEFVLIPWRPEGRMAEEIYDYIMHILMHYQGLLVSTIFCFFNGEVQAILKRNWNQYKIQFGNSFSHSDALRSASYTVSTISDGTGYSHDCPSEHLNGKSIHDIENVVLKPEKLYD", "sequence (chain, as listed by the source, chain 2 of 2)": "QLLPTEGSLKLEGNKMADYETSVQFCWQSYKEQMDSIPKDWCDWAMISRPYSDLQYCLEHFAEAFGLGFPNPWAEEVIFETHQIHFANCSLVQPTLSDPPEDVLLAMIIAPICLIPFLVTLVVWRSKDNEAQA", "assay": "cell-based or functional assay"}, "[2]": {"molecular_target": "adrenomedullin receptors in the lungs of dogs (dog)", "assay": "competition: displacement of iodine-labelled hAM from dog lungs"}, "[3]": {"molecular_target": "T1, adrenomedullin receptors in the lungs of dogs (dog, UniProt A0A8I3NWR4 23-462; A0A8I3MWA8 233-365)", "T1 construct": "also called AM1 (CRLR+RAMP2) receptor", "T1 sequence (chain, as listed by the source, chain 1 of 2)": "as the sequence (chain, as listed by the source, chain 1 of 2) above", "T1 sequence (chain, as listed by the source, chain 2 of 2)": "as the sequence (chain, as listed by the source, chain 2 of 2) above", "assay": "competition: displacement of iodine-labelled hAM from dog lungs"}}, "note": "Positions of bridges follow the written chain, without caps; N, C: chain ends. No end group written: not given here."}
{"molecule": "125I-rAM(1-50) (from UniProt P43145 94-143) (peptide)", "values": [{"measurement": "mean single-pass pulmonary extraction of 125I-rAM(1-50), dogs in vivo, baseline", "setting": "[1]", "value": 36.4, "unit": "%"}, {"measurement": "mean tracer 125I-rAM(1-50) extraction during a single pulmonary transit time, dog in vivo, one typical experiment, control", "setting": "[1]", "value": 30, "unit": "%"}]}
{"molecule": "CGRP (Phoenix Pharmaceuticals) (peptide)", "values": [{"measurement": "single-pass pulmonary extraction of 125I-rAM(1-50) after administration of CGRP (100 nmol i.v.)", "setting": "[1]", "value": 40.6, "unit": "%"}, {"measurement": "single-pass pulmonary extraction of 125I-rAM(1-50), control before CGRP", "setting": "[1]", "value": 44.6, "unit": "%"}]}
{"molecule": "unlabelled rAM(1-50) (from UniProt P43145 94-143) (peptide)", "values": [{"measurement": "mean extraction of 125I-rAM(1-50) in the same dog after injection of unlabelled rAM(1-50)", "setting": "[1]", "value": 12, "unit": "%"}, {"measurement": "mean single-pass pulmonary extraction of 125I-rAM(1-50) after administration of unlabelled rAM(1-50) (100 nmol i.v.)", "setting": "[1]", "value": 21.9, "unit": "%"}]}
{"molecule": "hCGRP (from UniProt P06881 83-119) (peptide)", "values": [{"measurement": "IC50", "setting": "[2]", "value": 440, "unit": "nM"}]}
{"molecule": "TQAQLLRVGCVLGTCQVQNLSHRLWQLMGPAGRQDSAPVDPSSPHSY (peptide, UniProt Q7Z4H4 101-147, looked up)", "note": "[hAM2]", "values": [{"measurement": "IC50", "setting": "[3]", "value": 480, "unit": "nM"}]}
{"molecule": "B1", "values": [{"measurement": "IC50", "setting": "[3]", "value": 980, "unit": "nM"}]}
{"molecule": "B2", "values": [{"measurement": "IC50", "setting": "[3]", "value": 0.055, "unit": "nM"}]}
{"molecule": "B3", "values": [{"measurement": "IC50", "setting": "[3]", "value": 7.1, "unit": "nM"}]}
{"molecule": "B4", "values": [{"measurement": "IC50", "setting": "[3]", "value": 0.041, "unit": "nM"}]}
{"molecule": "SFGCRFGTCTVQKLAHQIYQFTDKDKDNVAPRSKISPQGY-NH2 (ends and bridges not checked)", "note": "[hAM(13-52)]", "values": [{"measurement": "IC50", "setting": "[3]", "value": 34, "unit": "nM"}]}
{"molecule": "TVQKLAHQIYQFTDKDKDNVAPRSKISPQGY-NH2 (also called C-terminal AM fragment)", "note": "[hAM(22-52)]", "values": [{"measurement": "IC50", "setting": "[3]", "value": 810, "unit": "nM"}]}
